Reference: patent US20240117018A1

What was measured:
Assay in all cases: cell-based or functional assay
[1] = target: HIV-1 Env of pseudovirus CNE8 (HIV-1)
[2] = target: HIV-1 Env of pseudovirus 6535.3 (HIV-1)
[3] = target: HIV-1 Env of pseudovirus ZM135M.PL10a (HIV-1)
[4] = target: HIV-1 Env of pseudovirus T250-4 (HIV-1)
[5] = target: HIV-1 Env of pseudovirus Du156.12 (HIV-1)
[6] = target: HIV-1 Env of pseudovirus Ce2010_F5 (HIV-1)
[7] = target: HIV-1 Env of pseudovirus 7030102001E5(Rev-) (HIV-1)
[8] = target: HIV-1 Env of pseudovirus 6240_08_TA5_4622 (HIV-1)
[9] = target: HIV-1 Env of pseudovirus Q461.e2 (HIV-1)
[10] = target: HIV-1 Env of pseudovirus HIV-001428-2.42 (HIV-1)
[11] = target: HIV-1 Env of pseudovirus 3415.v1.c1 (HIV-1)
[12] = target: HIV-1 Env of pseudovirus Q23.17 (HIV-1)
[13] = target: HIV-1 Env of pseudovirus Q259.d2.17 (HIV-1)
[14] = target: HIV-1 Env of pseudovirus 249M B10 (HIV-1)
[15] = target: HIV-1 Env of pseudovirus 0260.v5.c36 (HIV-1)
[16] = target: HIV-1 Env of pseudovirus TRJO4551.58 (HIV-1)
[17] = target: HIV-1 Env of pseudovirus RHPA4259.7 (HIV-1)
[18] = target: HIV-1 Env of pseudovirus Ce0682_E4 (HIV-1)
[19] = target: HIV-1 Env of pseudovirus CNE17 (HIV-1)
[20] = target: HIV-1 Env of pseudovirus 62357_14_D3_4589 (HIV-1)
[21] = target: HIV-1 Env of pseudovirus CNE53 (HIV-1)
[22] = target: HIV-1 Env of pseudovirus ZM214M.PL15 (HIV-1)
[23] = target: HIV-1 Env of pseudovirus AC10.0.29 (HIV-1)
[24] = target: HIV-1 Env of pseudovirus HIV-16055-2.3 (HIV-1)
[25] = target: HIV-1 Env of pseudovirus TRO.11 (HIV-1)
[26] = target: HIV-1 Env of pseudovirus Q769.d22 (HIV-1)
[27] = target: HIV-1 Env of pseudovirus 1012_11_TC21_3257 (HIV-1)
[28] = target: HIV-1 Env of pseudovirus CNE20 (HIV-1)
[29] = target: HIV-1 Env of pseudovirus Du172.17 (HIV-1)
[30] = target: HIV-1 Env of pseudovirus ZM247v1(Rev-) (HIV-1)
[31] = target: HIV-1 Env of pseudovirus ZM233M.PB6 (HIV-1)
[32] = target: HIV-1 Env of pseudovirus Ce2060_G9 (HIV-1)
[33] = target: HIV-1 Env of pseudovirus SC422661.8 (HIV-1)
[34] = target: HIV-1 Env of pseudovirus ZM53M.PB12 (HIV-1)
[35] = target: HIV-1 Env of pseudovirus ZM249M.PL1 (HIV-1)
[36] = target: HIV-1 Env of pseudovirus WEAU_d15_410_787 (HIV-1)
[37] = target: HIV-1 Env of pseudovirus 1006_11_C3_1601 (HIV-1)

Substance: N49P7 (antibody)
- IC50 [1]: 0.037 µg/mL
- IC80 [1]: 0.125 µg/mL
- MPI [1]: 100
- IC50 [2]: 0.186 µg/mL
- IC80 [2]: 0.598 µg/mL
- MPI [2]: 100
- IC50 [3]: 0.2 µg/mL
- IC80 [3]: 0.96 µg/mL
- MPI [3]: 100
- IC50 [4]: 2.07 µg/mL
- IC80 [4]: 21.4 µg/mL
- MPI [4]: 91
- IC50 [5]: 0.032 µg/mL
- IC80 [5]: 0.086 µg/mL
- MPI [5]: 100
- IC50 [6]: 0.13 µg/mL
- IC80 [6]: 0.547 µg/mL
- MPI [6]: 100
- IC50 [7]: 0.184 µg/mL
- IC80 [7]: 0.832 µg/mL
- MPI [7]: 100
- IC50 [8]: 0.457 µg/mL
- IC80 [8]: 1.73 µg/mL
- MPI [8]: 100
- IC50 [9]: 0.261 µg/mL
- IC80 [9]: 0.922 µg/mL
- MPI [9]: 100
- IC50 [10]: 0.006 µg/mL
- IC80 [10]: 0.02 µg/mL
- MPI [10]: 100
- IC50 [11]: 0.16 µg/mL
- IC80 [11]: 0.55 µg/mL
- MPI [11]: 100
- IC50 [12]: 0.052 µg/mL
- IC80 [12]: 0.21 µg/mL
- MPI [12]: 100
- IC50 [13]: 0.332 µg/mL
- IC80 [13]: 2.47 µg/mL
- MPI [13]: 98
- IC50 [14]: 0.081 µg/mL
- IC80 [14]: 0.377 µg/mL
- MPI [14]: 100
- IC50 [15]: 0.354 µg/mL
- IC80 [15]: 0.884 µg/mL
- MPI [15]: 100
- IC50 [16]: 0.104 µg/mL
- IC80 [16]: 0.351 µg/mL
- MPI [16]: 100
- IC50 [17]: 0.083 µg/mL
- IC80 [17]: 0.246 µg/mL
- MPI [17]: 100
- IC50 [18]: 0.041 µg/mL
- IC80 [18]: 0.131 µg/mL
- MPI [18]: 100
- IC50 [19]: 0.126 µg/mL
- IC80 [19]: 0.46 µg/mL
- MPI [19]: 100
- IC50 [20]: 0.025 µg/mL
- IC80 [20]: 0.102 µg/mL
- MPI [20]: 100
- IC50 [21]: 0.035 µg/mL
- IC80 [21]: 0.124 µg/mL
- MPI [21]: 100
- IC50 [22]: 0.213 µg/mL
- IC80 [22]: 0.953 µg/mL
- MPI [22]: 100
- IC50 [23]: 5.03 µg/mL
- IC80 [23]: 36.7 µg/mL
- MPI [23]: 89
- IC50 [24]: 0.057 µg/mL
- IC80 [24]: 0.28 µg/mL
- MPI [24]: 100
- IC50 [25]: 0.044 µg/mL
- IC80 [25]: 0.16 µg/mL
- MPI [25]: 100
- IC50 [26]: 0.025 µg/mL
- IC80 [26]: 0.111 µg/mL
- MPI [26]: 100
- IC50 [27]: 0.046 µg/mL
- IC80 [27]: 0.125 µg/mL
- MPI [27]: 100
- IC50 [28]: 0.028 µg/mL
- IC80 [28]: 0.1 µg/mL
- MPI [28]: 100
- IC50 [29]: 0.102 µg/mL
- IC80 [29]: 0.668 µg/mL
- MPI [29]: 100
- IC50 [30]: 0.062 µg/mL
- IC80 [30]: 0.214 µg/mL
- MPI [30]: 100
- IC50 [31]: 0.226 µg/mL
- IC80 [31]: 0.774 µg/mL
- MPI [31]: 100
- IC50 [32]: 0.661 µg/mL
- IC80 [32]: 2.55 µg/mL
- MPI [32]: 100
- IC50 [33]: 0.114 µg/mL
- IC80 [33]: 0.32 µg/mL
- MPI [33]: 100
- IC50 [34]: 0.251 µg/mL
- IC80 [34]: 0.8 µg/mL
- MPI [34]: 100
- IC50 [35]: 0.039 µg/mL
- IC80 [35]: 0.134 µg/mL
- MPI [35]: 100
- IC50 [36]: 0.045 µg/mL
- IC80 [36]: 0.117 µg/mL
- MPI [36]: 100
- IC50 [37]: 0.044 µg/mL
- IC80 [37]: 0.158 µg/mL
- MPI [37]: 100
